The supplement of paper PMC10567573

B1: LOXL2 (parent)
chain: HISSCKLGPQVSLDPMKNVTCENG
B2: SMG5 (parent)
chain: FVSIAQSEQESLLQQAQAQFRMAQ
B3: APBB1IP (parent)
chain: LPLPPPPPEPLSQVSMWDQRWQDH

Variants of: B1
Assay: protein stability index of a GFP-peptide fusion (GPS, HEK-293T) (PSI 1-6); higher = more stable
Settings: c terminus: a fixed tail appended
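Also: lentivirally expressed fusions sorted by FACS into six bins by GFP to DsRed ratio, PSI derived from sequencing read proportions per bin multiplied by bin number.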

Protein stability index of substitutions, site by site:
N18: R 3.44 | M 3.42 | T 3.89 | L 3.12 | C 3.11 | D 4.34 | Y 3.08 | W 2.88 | Q 4.2 | S 3.2 | I 3.4 | V 3.78 | K 4.19 | P 3.92 | F 2.82 | H 3.81 | G 3.81 | A 3.76 | E 3.82
D14: T 3.62 | V 3.69 | Y 2.8 | W 2.14
K17: P 4.01 | W 3.05 | H 4.03 | E 4.28 | N 4.3 | C 3.63 | V 3.67 | Q 3.81 | F 2.97 | L 3.77 | A 3.98 | Y 3.44 | R 3.55 | D 4.66 | M 3.22 | T 4.19 | G 3.45 | I 3.3 | S 4.02
E22: K 3.89 | L 2.58 | M 2.9 | S 3.5 | Y 2.44 | D 3.82 | N 3.35 | R 3.5 | P 3.47 | W 2.09 | A 3.51 | V 3 | T 3.23 | C 3.22 | F 2.46 | Q 3.47 | G 3.17 | H 3.18 | I 2.92
G24: K 3.82 | M 3.52 | T 4.05 | A 3.65 | C 3.37 | R 3.58 | Y 3.29 | V 3.67 | H 3.94 | E 4.47 | D 4.01 | P 3.79 | F 3.34 | S 4.25 | Q 4 | N 4.12 | I 3.39 | L 3.45 | W 2.93
M16: I 3.68 | A 4.15 | W 2.86 | F 3.74 | N 4.61 | C 3.94 | S 4.23 | D 4.75 | G 4.22 | E 5.1 | R 4.47 | P 4.16 | Q 4.43 | T 4.04 | V 4.34 | K 4.5 | L 3.78 | H 4.11 | Y 3.86
C21: W 3.75 | K 4.06 | F 3.65 | D 4.79 | N 4.14 | L 3.88 | H 4.03 | T 4.08 | G 4.05 | I 3.53 | A 4.41 | R 3.94 | Q 3.86 | M 3.61 | S 4.63 | E 4.92 | Y 3.36 | P 4.17 | V 4.1
V19: C 3.86 | S 4.38 | E 4.44 | F 2.95 | K 4.13 | A 4.32 | L 3.77 | W 2.99 | H 3.89 | I 3.59 | G 4.15 | N 4.57 | P 4.2 | Y 3.76 | T 3.71 | M 3.55 | D 4.67 | Q 4.08 | R 4.26
P15: F 3.04 | V 3.88 | N 4.11 | C 3.43 | R 3.82 | K 3.93 | S 3.94 | W 3.08 | I 3.41 | A 3.86 | H 4.02 | D 4.19 | Q 4.03 | T 4.14 | Y 2.84 | L 3.62 | E 4.64 | M 3.74 | G 3.93
N23: D 4.38 | S 3.91 | V 3.53 | F 2.93 | C 4.01 | P 3.63 | R 3.58 | A 3.53 | Q 4.08 | Y 3.35 | L 3.1 | E 4.63 | G 3.85 | W 2.21 | T 3.77 | I 2.9 | K 3.98 | H 3.61 | M 3.26
T20: A 3.99 | Q 4.02 | E 4.16 | G 3.87 | R 3.88 | S 4.08 | M 3.64 | W 2.31 | V 3.83 | Y 3.58 | L 4.37 | C 3.37 | P 4.26 | I 3.84 | F 2.48 | N 4.13 | D 4.4 | H 3.85 | K 4.26

Variants of: B2
Assay: as above
Settings: c terminus: a fixed tail appended

Protein stability index: each site, then its substitutions
Q6: S 2.25 | M 2.19 | P 2.35 | A 1.9 | T 1.84 | G 1.85 | C 1.44 | D 2.75 | R 2.33 | E 2.93 | L 1.79 | K 2.26 | H 1.92 | V 1.53 | I 2.02 | F 2.15 | Y 2.32 | N 1.97
F1: N 3.93 | W 2.65 | L 3.3 | I 2.96 | Y 2.51 | K 3.77 | C 2.75 | Q 3.7 | A 4.58 | P 3.77 | M 2.97 | H 3.9 | G 4.01 | V 3.88 | T 4.04 | E 4.16 | R 3.42 | S 3.41 | D 4.28
S7: L 1.77 | A 2.38 | F 2.22 | Q 2.5 | M 1.65 | T 2.36 | R 2.79 | W 3.26 | G 2.61 | I 2.56 | P 2 | Y 1.57 | D 2.33 | K 1.98 | C 1.63 | E 2.85 | N 2.27 | H 2.77
I4: L 1.86 | H 1.9 | R 2.06 | Q 3.01 | S 1.87 | N 2.49 | D 3.09 | K 2.39 | T 2.78 | P 3.08 | G 2.42 | F 2.2 | V 2.29 | A 2.38 | M 2.61 | E 2.91 | C 1.83 | W 2.8 | Y 2.12
V2: Q 2.9 | M 2.9 | I 2.59 | E 3.69 | K 3.12 | R 3.45 | W 2.98 | N 4.14 | D 3.77 | L 2.99 | P 3.8 | A 3.24 | Y 2.69 | S 3.45 | T 3.35 | G 3.65 | F 2.22 | C 2.82 | H 2.43
S3: G 2.13 | Q 2.62 | F 1.87 | M 1.6 | E 2.61 | L 1.87 | V 1.77 | C 1.66 | W 2.89 | A 1.99 | K 2.28 | N 1.83 | D 2.22 | Y 1.58 | P 2.22 | I 1.61 | R 2.31 | H 1.74 | T 2.25
E8: C 2.04 | D 2.39 | A 2.2 | G 1.86 | F 3.04
A5: R 2.57 | F 2.56 | L 2.23 | I 1.78 | E 2.64 | K 2.3 | G 1.66 | N 1.86 | M 2.58 | V 1.42 | H 2.21 | D 3.41 | S 1.76 | Q 2.11 | Y 1.91 | T 1.54 | C 1.82 | P 1.88

Variants of: B3
Assay: as above
Settings: c terminus: a fixed tail appended

Protein stability index: each site, then its substitutions
P5: W 3.4 | M 3.84 | K 3.28
P7: K 3.97 | E 4.25
